Laboratory results as given in paper PMC2734165, “The Immune System Strikes Back: Cellular Immune Responses against Indoleamine 2,3-dioxygenase” (PLoS ONE, 2009).

B1: IFN-γ: IFN-γ, 100 U/ml for 2 days (protein, UniProt P01579 24-161, looked up)
Interferon gamma: QDPYVKEAENLKKYFNAGHSDVADNGTLFLGILKNWKEESDRKIMQSQIVSFYFKLFKNFKDDQSIQKSVETIKEDMNVKFFNSNKKKRDDFEKLTNYSVTDLNVQRKAIHELIQVMAELSPAAKTGKRKRSQMLFRG

Assays:
[1] = system: established murine cancers; settings: ref [17]; cited from earlier work
From the text: The state of lymphopenia following high-dose chemotherapy appears to provide a window of enhanced responsiveness to immunotherapy. Additionally, certain chemotherapeutic drugs may assist in breaking immune tolerance by preferentially inhibition of Tregs, [47]. Nonetheless, chemotherapy alone is never sufficient to break tolerance to tumors probably because the original tolerogenic mechanisms rapidly restore tolerance following each cycle of chemotherapy. In principle, therefore, chemotherapy might provide an environment in which IDO-based immunotherapy could have a synergistic ...

[2] = system: IDO in CAMA-1 and MDA-MB-231; assay: Intracellular IDO staining, breast cancer cell lines; type: cell-based
Method: PBMC, DC, and cancer cells were examined for intracellular IDO expression using flow cytometry. After fixation and permeabilization (Cytofix/Cytoperm, BD), cells were stained with anti-IDO antibody (Millipore Corporation). For comparison, cells were stained with an isotype matched control (Millipore Corporation). After incubation, cells were washed twice with Perm/Washbuffer (BD) before staining with a FITC-labeled secondary antibody (DAKO). The samples were analyzed on BD FACS Aria, using DIVA software (BD Biosciences). Assuming normality, intracellular IDO expression was given by a one-tailed two sampled t-test comparing MFIIDO and MFIIsotype control, where MFI is the Mean Fluorescence Intensity. […]
(§1) Statistical analysis was performed on data on intracellular IDO staining. Assuming normality, intracellular IDO expression was given by a one-tailed two sampled t-test comparing MFIIDO and MFIIsotype control, where MFI is the Mean Fluorescence Intensity. […] HLA-A2 expression was determined using the same approach.
(§2) Figure 5 Functional capacity of IDO5-specific T cells to kill cancer cell lines treated with IFN-γ for up-regulation of IDO, or treated with IDO ShRNA for down-regulation of IDO. […] Intracellular IDO expression was given by a one-tailed two sampled t-test comparing MFIIDO (dark histograms) and MFIIsotype control (light histograms), where MFI is the Mean Fluorescence Intensity. […]

[3] = system: breast cancer cell line MDA-MB-231; assay: 51Cr-release assay, MDA-MB-231; type: cell-based; settings: IFN-γ 100 U/ml for 2 days
Method: (§3) Conventional ^51Cr-release assays for CTL-mediated cytotoxicity was carried out as described elsewhere. Target cells were T2-cells, in vitro generated autologous immature DC (iDC) and matured DC (mDC), in vitro generated allogeneic HLA-A2^+ iDC and mDC, autologous ex vivo isolated monocytes, T cells and B cells (isolated using CD14^+, CD3^+ or CD19^+ microbeads (MACS)), the natural killer target cell line K562, ex vivo enriched HLA-A2^+ AML-blasts (B and T cells were depleted from the bone marrow of AML patients using CD19^+ and CD3^+ microbeads (MACS)), the breast cancer cell lines CAMA-1 and MDA-MB-231, as well as the colon cancer cell lines HCT-116 and SW480 (all available at the American Type Culture Collection (ATCC)), and FM55M [27]. Lysis were blocked using the HLA specific mAb W6/32 (2 µg/100 µl). In some assays, target cells were treated with 100 U/ml IFN-γ for 2 days.
as §2

[4] = system: HLA-A2 on CAMA-1 and MDA-MB-231; assay: HLA-A2 surface staining, breast cancer cell lines; type: cell-based
Method: Cancer cells were examined for HLA-A2 expression using flow cytometry. Cells were stained with a fluorochrome-coupled HLA-A2 mAb (BD Bioscience). For comparison, cells were stained with an isotype matched control. The samples were analyzed on BD FACS Aria, using DIVA software (BD Biosciences). Assuming normality, HLA-A2 expression was given by a one-tailed two sampled t-test comparing MFIHLA-A2 and MFIIsotype control, where MFI is the Mean Fluorescence Intensity. For p-values <0.05 (significance level) cells were defined HLA-A2^+. The fold of expression was defined as MFIHLA-A2/MFIIsotype control.
as §1, with “Intensity. For p-values <0.05 (significance level) cells were defined IDO^+.” for “Intensity.”
as §2

[5] = system: breast cancer cell line CAMA-1; assay: 51Cr-release assay, CAMA-1; type: cell-based; settings: IFN-γ 100 U/ml for 2 days
Method: as §3, §2

[6] = system: autologous CD14^+ monocytes, CD3^+ T cells and CD19^+ B cells; assay: 51Cr-release assay, autologous monocytes, T cells and B cells; type: cell-based; settings: CD19^+ B cells after IFN-γ treatment
From the text: Target cells were T2-cells, in vitro generated autologous immature DC (iDC) and matured DC (mDC), in vitro generated allogeneic HLA-A2^+ iDC and mDC, autologous ex vivo isolated monocytes, T cells and B cells (isolated using CD14^+, CD3^+ or CD19^+ microbeads (MACS)), the natural killer target cell line K562, ex vivo enriched HLA-A2^+ AML-blasts (B and T cells were depleted from the bone marrow of AML patients using CD19^+ and CD3^+ microbeads (MACS)), the breast cancer cell lines CAMA-1 and MDA-MB-231, as well as the colon cancer cell lines HCT-116 and SW480 (all available at the American Type Culture Collection (ATCC)), and FM55M [27]. Lysis were blocked using the HLA specific mAb W6/32 (2 µg/100 µl) [28]. In some assays, target cells were treated with 100 U/ml IFN-γ for 2 days.
Next, we tested the ability of RBS35 to lyse autologous monoctyes, T cells and B cells. For this purpose, we isolated CD14^+ monocytes, CD3^+ T cells and CD19^+ B cells directly ex vivo from IDO^+ PBMC. The isolated cells were subsequently used as target cells in a ^51Cr-release assay.
All assays were performed in different E∶T ratios. […] ( c ), Lysis of autologous CD14^+ monocytes, CD3^+ T cells and CD19^+ B cells isolated directly ex vivo from IDO^+ PBMC, and lysis of autologous CD14^+ monocytes, CD3^+ T cells and CD19^+ B cells after IFN-γ treatment. […]

[7] = CAMA-1 and MDA-MB-231, IFN-γ 100 U/ml for 2 days

Molecule | Synergy with chemotherapy drugs [1] | Fold of IDO expression, MFIIDO/MFIIsotype control ([2]; CAMA-1 + IFN-γ treatment, p = 0.004, before treatment 2.3 (p = 0.020), representative of 3 experiments) | IDO expression after treatment [2, 7] | Effect on killing of MDA-MB-231 by RBS35 [3] | Fold of HLA-A2 expression (printed as MFIIDO/MFIHLA-A2) ([4]; CAMA-1 + IFN-γ treatment, p = 0.002, before treatment 43.7 (p = 0.004), representative of 3 experiments) | HLA-A2 expression after treatment [4, 7] | Effect on killing of CAMA-1 by RBS35 [5] | Effect of IFN-γ on killing of autologous immune cells by RBS35 [6]
Cn1cc(C[C@H](N)C(=O)O)c2ccccc21 [1-Methyl-Tryptophan] | work synergistically with different chemotherapy drugs in established murine cancers | – | – | – | – | – | – | –
B1 | – | 3.5 | increased the expression of IDO and HLA-A2 in both cell lines | introduced killing of the MDA-MB-231 cells | 141.2 | increased the expression of IDO and HLA-A2 in both cell lines | increased the killing by RBS35 of CAMA-1 | introduced killing of the CD14^+ monocytes, but not of the T and B cells
